Results reported in IntAct's records for PubMed 20561531.

B1: PRKC apoptosis WT1 regulator protein (Homo sapiens), Q96IZ0 (parent)
chain: MATGGYRTSSGLGGSTTDFLEEWKAKREKMRAKQNPPGPAPPGGGSSDAAGKPPAGALGTPAAAAANELNNNLPGGAPAAPAVPGPGGVNCAVGSAMLTRAAPGPRRSEDEPPAASASAAPPPQRDEEEPDGVPEKGKSSGPSARKGKGQIEKRKLREKRRSTGVVNIPAAECLDEYEDDEAGQKERKREDAITQQNTIQNEAVNLLDPGSSYLLQEPPRTVSGRYKSTTSVSEEDVSSRYSRTDRSGFPRYNRDANVSGTLVSSSTLEKKIEDLEKEVVRERQENLRLVRLMQDKEEMIGKLKEEIDLLNRDLDDIEDENEQLKQENKTLLKVVGQLTR
partner: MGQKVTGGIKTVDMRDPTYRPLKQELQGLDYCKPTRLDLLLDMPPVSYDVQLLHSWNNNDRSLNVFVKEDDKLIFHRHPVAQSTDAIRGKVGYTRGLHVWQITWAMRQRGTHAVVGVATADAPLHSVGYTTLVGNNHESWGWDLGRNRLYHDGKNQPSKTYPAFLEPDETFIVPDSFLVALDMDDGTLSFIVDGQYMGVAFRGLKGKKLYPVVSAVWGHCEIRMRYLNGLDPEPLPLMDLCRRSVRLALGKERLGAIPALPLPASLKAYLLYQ
B2: PRKC apoptosis WT1 regulator protein (Homo sapiens), Q96IZ0 (parent)
chain: B1 chain
B3: SPRY domain-containing SOCS box protein 2 (Mus musculus), O88838 (parent)
chain: MGQTALARGSSSTPTSQALYSDFSPPEGLEELLSAPPPDLVAQRHHGWNPKDCSENIDVKEGGLCFERRPVAQSTDGVRGKRGYSRGLHAWEISWPLEQRGTHAVVGVATALAPLQADHYAALLGSNSESWGWDIGRGKLYHQSKGLEAPQYPAGPQGEQLVVPERLLVVLDMEEGTLGYSIGGTYLGPAFRGLKGRTLYPSVSAVWGQCQVRIRYMGERRVEEPQSLLHLSRLCVRHALGDTRLGQISTLPLPPAMKRYLLYK
partner: B1 chain

Variants of: B1
Settings: with spsb1_mouse Spsb1, Q9D5L7

| Variant | effect of a mutation on the interaction |
| --- | --- |
| N71A | disrupting interaction |
| N70A | disrupting interaction |
| E68D;L69I | increasing interaction |

Variants of: B2
Settings: with spsb2_mouse Spsb2, O88838

| Variant | effect of a mutation on the interaction |
| --- | --- |
| L69I | increasing interaction |
| N70A | disrupting interaction |
| E68D;L69I | increasing interaction |
| N71A | disrupting interaction |
| E68D | increasing interaction |

Variants of: B2
Settings: with spsb4_mouse Spsb4, Q8R5B6
Chain of spsb4_mouse Spsb4, Q8R5B6 (Q8R5B6 whole entry): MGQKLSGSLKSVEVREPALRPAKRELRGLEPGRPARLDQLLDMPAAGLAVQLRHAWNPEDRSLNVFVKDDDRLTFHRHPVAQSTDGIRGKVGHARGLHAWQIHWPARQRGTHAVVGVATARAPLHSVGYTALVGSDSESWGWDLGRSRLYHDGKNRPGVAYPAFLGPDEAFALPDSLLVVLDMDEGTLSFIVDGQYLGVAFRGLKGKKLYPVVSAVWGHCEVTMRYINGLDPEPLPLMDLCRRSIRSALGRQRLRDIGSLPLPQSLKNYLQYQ

| Variant | effect of a mutation on the interaction |
| --- | --- |
| L69I | increasing interaction |
| N70A | disrupting interaction |
| E68D;L69I | increasing interaction |
| N71A | disrupting interaction |
| E68D | increasing interaction |

Variants of: B2
Settings: with spsb2_mouse Spsb2, O88838
Remark: another data set of the same source

| Variant | effect of a mutation on the interaction |
| --- | --- |
| N72A | disrupting interaction |

Variants of: B2
Settings: with spsb4_mouse Spsb4, Q8R5B6
Remark: another data set of the same source

| Variant | effect of a mutation on the interaction |
| --- | --- |
| N72A | disrupting interaction |

Variants of: B3
Settings: with pawr_human PAWR, Q96IZ0

| Variant | effect of a mutation on the interaction |
| --- | --- |
| V206A | disrupting interaction |
| Y120A | disrupting interaction |
| S126A;N127A;S128A | disrupting interaction |
| L123A;L124A;G125A | disrupting interaction |
